In publication PMC3810769 (Molecular Biology of the Cell, 2013):
Like-named read-outs stand apart in the source and are kept apart here.

T1: nebulin SH3 domain (UniProt P20929 8466-8525)
T1 sequence (looked up): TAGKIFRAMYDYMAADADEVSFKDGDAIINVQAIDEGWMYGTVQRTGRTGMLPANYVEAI

T2: nebulette SH3 domain (residues 955-1014) (human (by the printed UniProt entry …, UniProt O76041 955-1014))
T2 sequence (looked up): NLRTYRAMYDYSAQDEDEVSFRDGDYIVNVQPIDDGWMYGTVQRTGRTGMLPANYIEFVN

T3: nebulette SH3 domain fused to glutathione S-transferase (human (by the printed UniProt entry …, UniProt O76041 954-1014))
T3 sequence (looked up): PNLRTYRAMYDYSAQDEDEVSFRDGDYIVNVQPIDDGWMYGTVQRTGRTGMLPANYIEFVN


Experiments:
nebulin SH3 domain [1] = biological target: T1, nebulin SH3 domain; assay: ITC
[2] = biological target: T2, nebulette SH3 domain (residues 955-1014); assay: ITC
nebulin SH3 domain [3] = biological target: T1, nebulin SH3 domain; assay: ITC; remark: listed apart in the source
[4] = biological target: T3, nebulette SH3 domain fused to …; assay: peptide or protein array

| Kd (nebulin SH3 domain [1]) | Kd [2] | dH [2] | stoichiometry N [2] | Kd (nebulin SH3 domain [3]) | dH (nebulin SH3 domain [3]) | stoichiometry N (nebulin SH3 domain [3]) | binding result [4] | Binder |
| --- | --- | --- | --- | --- | --- | --- | --- | --- |
| 9.3 µM | 12.9 µM | -8.46 kcal/mol | 1.12 | 9.61 µM | -9.43 kcal/mol | 1.02 |  | PPPTLPKPKLPKH [synthetic 13-mer XIRP2 peptide PPPTLPKPKLPKH] |
|  |  |  |  |  |  |  | binds | GVLPPPTLPKPK [XIRP2 PR6 peptide GVLPPPTLPKPK] |
